Results from patent publication US7754216B2, “Method of treating multiple sclerosis with anti-K6 antibody” (Mayo Foundation for Medical Education and Research, priority 2002, dated 2010).

What was measured:
[1] = biological target: rat myelin basic protein (MBP) (UniProt P02688)
[2] = biological target: T1, recombinant rat myelin oligodendrocyte glycoprotein (αMOG), extracellular domain, amino acids 1-125 (UniProt Q63345)
T1 sequence: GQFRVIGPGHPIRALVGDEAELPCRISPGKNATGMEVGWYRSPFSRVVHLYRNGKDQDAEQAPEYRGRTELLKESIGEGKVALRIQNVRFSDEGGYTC

K6 mRNA in spinal cord = K6 mRNA in spinal cord after kainic acid excitotoxic injury; assay type: in vivo, rat; details: three days after intraperitoneal KA
From the text: Levels of K6 mRNA in adult rat spinal cord were increased in both white and gray matter following kainic acid (KA)-induced excitotoxic injury. Dark-field photomicrographs (FIG. 1) show the autoradiographic localization of K6 mRNA in a transverse section through the spinal cord of a control rat, and in parallel sections of paired experimental rats at 3 and 7 days after intraperitoneal injection of KA. By three days after KA treatment, K6 mRNA was 2-fold higher in the white matter and 1.5-fold higher in the dorsal horn (DH) and ventral horn (VH) of the spinal cord gray matter, compared to controls (P<0.05).

Sequence of UniProt P02688 (P02688 2-195): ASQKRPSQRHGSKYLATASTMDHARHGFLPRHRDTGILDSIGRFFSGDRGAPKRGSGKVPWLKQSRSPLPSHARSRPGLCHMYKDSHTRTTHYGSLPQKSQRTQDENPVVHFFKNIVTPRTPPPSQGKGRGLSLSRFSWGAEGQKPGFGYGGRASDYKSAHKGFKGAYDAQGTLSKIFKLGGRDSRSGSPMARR

## recombinant rat K6 (r-K6)
[1]
  degradation on 16.5% Tricine SDS-PAGE: MBP was partially degraded by 10 minutes after addition of K6, and showed much greater levels of degradation at 30 minutes and 60 minutes
[2]
  degradation on 16.5% Tricine SDS-PAGE: αMOG was partially degraded by 1 hour after addition of K6, and was completely degraded by 4 hours

## C=C(C)[C@H]1CN[C@H](C(=O)O)[C@H]1CC(=O)O [KA, kainic acid]
K6 mRNA in spinal cord
  K6 mRNA in dorsal horn (DH) and ventral horn (VH) gray matter compared to controls: 1.5 fold
  K6 mRNA in spinal cord white matter compared to controls: 2 fold

## K6 (recombinant; species not stated where used)
Collagen type I
  degradation on 7.5% SDS-PAGE: Collagen type I was degraded within 5 minutes of K6 addition
fibronectin
  degradation on 7.5% SDS-PAGE: Fibronectin was partially degraded within 1 hour of K6 addition and was completely degraded by 24 hours
laminin
  degradation on 7.5% SDS-PAGE: Laminin was partially degraded by one hour after K6 addition, and was completely degraded by 16 hours
